# Source: the DeepSol protein solubility set
# Assay: soluble on expression in E. coli; label from the status in PepcDB or PDB records
row,Sequence,soluble on expression in E. coli
1,MSLSESVIADFVGKFNSEVAGRGDPIRGRVVLSQKRLVLAASEDDKLTIPLDSIFDIAVGQVPPDLGDFFDSTVTIAFEHRGKRLVAAIEAGDEKIEKFGTVLFKAIINGTETTVKERARVGGRVTEESFKTAKLFLTPGNVEFRRSDGSFNVDLKTVSDFDRNTREINGKGRPVLTVRHMKDGTAMTTLAAMASNRKMSILGRYLRREYAELMEEIEDVDLTKDKKEVLVAMYSTGDMDGMPLASILGKDSSQVSMILQDLAADGLVQDGSDGPTLTPTGKVVASRHLEDVNAEGHHHHHH,not soluble
2,MSLSETATQAPQPANVLLEVNDLRVTFATPDGDVTAVNDLNFTLRAGETLGIVGESGSGKSQTAFALMGLLATNGRIGGSATFNGREILNLPERELNTLRAEQISMIFQDPMTSLNPYMRVGEQLMEVLMLHKGMSKAEAFEESVRMLDAVKMPEARKRMKMYPHEFSGGMRQRVMIAMALLCRPKLLIADEPTTALDVTVQAQIMTLLNELKREFNTAIIMITHDLGVVAGICDKVLVMYAGRTMEYGKARDVFYQPVHPYSIGLLNAVPRLDSEGAEMLTIPGNPPNLLRLPKGCPFQPRCPHAMEICNNAPPLEAFSPGRLRACFKPVEELL,not soluble
3,MSLSEVDIAKADPAAASHPLLLNGDATVAQKNPGSVAENNLCSQYEEKVRPCIDLIDSLRALGVEQDLALPAIAVIGDQSSGKSSVLEALSGVALPRGSGIVTRCPLVLKLKKLVNEDKWRGKVSYQDYEIEISDASEVEKEINKAQNAIAGEGMGISHELITLEISSRDVPDLTLIDLPGITRVAVGNQPADIGYKIKTLIKKYIQRQETISLVVVPSNVDIATTEALSMAQEVDPEGDRTIGILTKPDLVDKGTEDKVVDVVRNLVFHLKKGYMIVKCRGQQEIQDQLSLSEALQREKIFFENHPYFRDLLEEGKATVPCLAEKLTSELITHICKSLPLLENQIKETHKRITEELQKYGVDIPEDENEKMFFLIDKINAFNQDITALMQGEETVGEEDIRLFTRLRHEFHKWSTIIENNFQEGHKILSRKIQKFENQYRGRELPGFVNYRTFETIVKQQIKALEEPAVDMLHTVTDMVRLAFTDVSIKNFEEFFNLHRTAKSKIEDIRAEQEREGEKLIRLHFQMEQIVYCQDQVYRGALQKVREKELEEEKKKKSWDFGAFQSSSATDSSMEEIFQHLMAYHQEASKRISSHIPLIIQFFMLQTYGQQLQKAMLQLLQDKDTYSWLLKERSDTSDKRKFLKERLARLTQARRRLAQFPGEGHHHHHH,soluble
4,MSLSFQMKYDIRLRFEVEGIVEKTDVIGAIFGQTENLFGDEFDLRELQDKGRLGRIIVEVKTKGGKSEGEIIIPSNLDRIETALIAAMVESVDKVGPYNSKFELIEIEDIRAEKLKKIIERAKGILSSWSKEKSLDIKEVINEISSAVKVGEITEYGPERLPAGPDVDKDPNLIIVEGRADVINLLRYGYKNVIAVEGATSRIPETLINLSKMKKTVIAFLDGDHGGDLILKELLSNNVKIDFVARAPIGREVEELTGKEIAKALSNMMPLTQYLKKVQEAEQAIAKNVIAKEEKPIQSETTQQVVQITLPQNILEEIKKLPGTLEGVLYDNNWNLIEKVQVRDIIPKLEAYEDNKVAYIIFDGVITQRLLDLASQKNIKMIIGARIGGINKRPQNVDILTFTDIISSEGHHHHHH,soluble
5,MSLSGETELTFWTFSGLHEQFYVEMVKEWNKKYPDRKIKLNTVVYPYGQMHDNLSISLIAGEGVPDIADVELARFSNFLKGSDIPLADLTPLIEKDRDKFVEARLTLYSKNGKLYGLDTHVGTTVMFYNMDVMKKAGVNPDDIKTWDDYHKAGQKVRKVTGKPMGTVETNDSATFLSMISQQNSGYFDKNGKLILNNDTNVKTLQYLKDMINDKTMIPAPGGGHHSEEYYGFMNQGGAASVLMPIWYMGRFIDYMPDLKGKIAIRPLPAWKEGGDRSAGLGGTATVVPKQSKHVELAKEFLAFAKGSEEGNKKLWSVLGFDPLRWDVWSSKELKEKNKYTDYFQNGTGIFSVLLDIKDEINPIYLHEDFAKASDLVNRSVLFDALKSQQKTPKQALDRAAGELKQKEGHHHHHH,soluble
6,MSLSGTITFSTGTRAGVYQKYGELLRTELRKDMPGLDVRLMTSAGSQENVERVASGEADFTIAAADAVETYKLAGSPGAEGLRGVTRLYDDYVQLVVPSDSDIQSVRDLRGKRVAIGLPNSGVRLIATRLLKAVGIDPETDITPRADGIDTGPGRLGDELDAFFWSGGVPTDGLKEIAESSAFRFVPIGDDLVTKLHRSGGATRYYRTTNMPESAYPTVQNGAVVPTMAVSNLLVTRADVDPRLTEWLTRTVLDSRDGIGAHVHSAQLVDLRTAIYTDPLELHEGARRYYRSVKEGHHHHHH,soluble
7,MSLSINIKAVTDDNRAAILDLHVSQNQLSYIESTKVCLEDAKECHYYKPVGLYYEGDLVGFAMYGLFPEYDEDNKNGRVWLDRFFIDERYQGKGLGKKMLKALIQHLAELYKCKRIYLSIFENNIHAIRLYQRFGFQFNGELDFNGEKVMVKELEGGSHHHHHH,soluble
8,MSLSIRLHIWGDYACFTRPEMKVERVSYDVMTPSAARGILEAIHWKPAIRWHIDRLHVLKPIRFQSIRRNEVGAKASASNAKSAMKKGSTEGLGIVVDENRQQRAAMVLTNVAYVIEAHFTMTEKAGPEDTPAKHLSMFNRRAAKGQCFHRPCLGTREFAAEFALLGENDPLPEAKPRLEVRDDDFGWMLHDIDFASGRNESHFFRAVMKDGVIEVPPFKSGEVVKEGHHHHHH,soluble
9,MSLSKIKEIRTKVYQWNGKTVPPQNNFCTNASDLLYEKSDAMGSFRFHEWLICEVETNDGHIGIGNAALAPQLVKNTIDTYLKPLVVGEDPFDYAYIWEKMYRKTLNWGRRGLGMVAISAIDIAIWDVLGKITNKPVFKLLGGRTKEKIPVYASKLYAQPLKQLQEEAEKYKNEGFKMFKSRMGWGPKDGSEGMKKNLQLLEAVREVIGEDTDLMVDCYMGWNLDYTKRMLPKMAKFNLRWLEEPVHADDIHGYAELNNMNIIPISGGEHEFNLFGFKQLLELNAVSYIQYDNNRVGGFTVAQKINALAEAYQIPVVPHAGQMHNYHLTMSNFNCPISEFFPVHEVEVGNELFYYIFEGDPAPVDGMIDLDDNTPGLGLKVTDKYKSDFKIIEEGHHHHHH,soluble
10,MSLSKIKSVRTRVWNWTGPTVPPTGNFCTNASDVLWDKGDAMSSFRFHQWLTCEVETDDGTIGIGNAALAPTVVKKAIDDWFAPMVIGEDPFDYAYLWEKMYRRSHAWGRKGIGMTAISAVDLAIWDLMGKLTGKPVFKLLGGRTKEKIPVYYSKLYSGPIDTMQAEAEEARKNNYPGYKMRFGWGPKDGMAGMRENLKRVEAVREVIGYDVDLMLECYQGWNLDYTKRMLPKLVKYEPRWLEEPVIADDVEGYRELNAMNIVPISGGEHEFSVIGCKDLIEKKAVSVLQYDTNRVGGITAAQKINAIAEAFQVPVIPHAGQMHNYHLTMANANCMISEYFPVFDVEVGNELFYYIFEGDPAAVDGFLDLDDNIPGLGISITDKYLKHFEIQEEGHHHHHH,soluble
11,MSLSKILIAGCGDLGLELARRLTAQGHEVTGLRRSAQPMPAGVQTLIADVTRPDTLASIVHLRPEILVYCVAASEYSDEHYRLSYVEGLRNTLSALEGAPLQHVFFVSSTGVYGQEVEEWLDEDTPPIAKDFSGKRMLEAEALLAAYSSTILRFSGIYGPGRLRMIRQAQTPEQWPARNAWTNRIHRDDGAAFIAYLIQQRSHAVPERLYIVTDNQPLPVHDLLRWLADRQGIAYPAGATPPVQGNKKLSNARLLASGYQLIYPDYVSGYGALLAAMREGHHHHHH,soluble
12,MSLSKILPVVTACLLATTMGASASSIPEKASVCSGCHGQDGMGQPNIAPMIAGLNANYLNTQIELFLSGERQNVVMQGMAKELSDPAVRKEVMNYFANLPSYEFTNPEQRGDQADIRNPYRKLIFQGDWDRNIPACATCHGASGMGVDKFPRLASQHADYLKTQLMAWKIGTRSGDPLNMMGTIAKNLTDEEIENLSYYFASLRYEGHHHHHH,not soluble
13,MSLSKLGYIPNQAARTLITNKTLTIGLIQKSSAPEIRQNPFNSDVLNGINQACNVRGYSTRMTVSENSGDLYHEVKTMIQSKSVDGFILLYSLKDDPIEHLLNEFKVPYLIVGKSLNYENIIHIDNDNIDAAYQLTQYLYHLGHRHILFLQESGHYAVTEDRSVGFKQYCDDVKISNDCVVIKSMNDLRDFIKQYCIDASHMPSVIITSDVMLNMQLLNVLYEYQLRIPEDIQTATFNTSFLTENATPSQTSVNINPDVLGFTAGNTIIDVLRNETISFREKLISTQIVERVSTTKIEGHHHHHH,soluble
14,MSLSKNNETLEALSKEYRDTIPADLRKTNTFDWYLQQLYDEPKIARNAHQRVADMFDYYGKSYDEEAGVVEYELASEDPLHDGENTFYGRVIHEAMHEFVNKVKSGARGLGPEKRIKLLLGPVGSGKSDFDRQVRRYFEDYTSRDEGRMYTFRWTNLCDVIHDQDPADDVVRSPMNQDPLVLLPQAQRDKVIEDINAELDAPYTIRNEQSLDPASEFYMDRLLAEYDDDLQAVLENHVEIVRFVADENQRRGIETFEPKDKKNQDETELTGDVNYSKIAIYGESDPRAFDYSGAFCNANRGIFSGEELLKLQREFLYDFLHASQEQTIKPKNNPRIDIDQVIVGRTNMPEYRDKKGDEKMEAFNDRTKRIDFPYVLQYEAEANIYQKMLRNADLPDIQVEPHTLEMAGLFGVLTRIEEPDNESIDLVQKAKAYNGEIDEADDVDVKKLREEAEKMADIGEGMDGVSPRFIGDEIAEAIMDSMHRSRDFLSPLTTFNHLEGNLENHGSIDEESFSKYYRFLELVREEYKERAIEDVRHALAYDMDEIQRQGEKYMDHVMAYIDDATVEDELTGREQEPDEQFLRSVEEKLNLPEDRKDDFRQEVSNWVSRRAREGDTFNPQDNDRLRRALERKLWEDKKHNINFSALVSSSEMDDEERNQWVDALIEQGYSEEGAKEVLEFAGAEVAKSEMEEEGHHHHHH,soluble
15,MSLSKVYLVPTPIGNLGDITLRALEVLKNVDLIAAEDTRQTLKLLNHFEIKKPLISYHKHNEQGKGEEILRRVKEGTSVAIVSDAGTPGISDPGSVVVEKCIEEGIEFEVLPGATAFTTALIYSGLDTTKFMFKGFFPRENKDKRSFIEDIKDRTETIIIYESPYRILDTIDTLKEGLGNRKVAICRELTKLHEEIFRGTLEEAKIHFEENAPKGEFVCVISGKTDKEIEEENTSKWISMSIEEHIIHYIDNEGMKKKDAIKQVAKDRGVAKSEIYKFSLDEGHHHHHH,soluble
16,MSLSLLLSILCMTQAKDRIVERPPFLAQSSSSIEIDKIVMSDTVTTVYIKAFYRPKYWIKIATGSVLKDNNGNLYPVRKGIGITLDKEFWMPESGEAEFQLTFPPIPQNVTCLDFSEGDFEGAYKIWGIQLDKKTFSKFKLPKDVTVTKADHKTTLPEPVVKYAKAILKGRILDYQKGMPNKGSLYFQDVIRDEAQEGKIRIQDDGTFYHEMNVFMVTPCMIRFPFGAVSYLLAPGETTSVVINLRENARKQSHLRQAEKPYGKEIYYGGYLAGVQQELADHPMSFSFTEGNSYEEYQQQIKKLNGKTAEEYKAQILARLPEFRKQITQSKGSPAYKEIINTDLELSAALKIIETERNLKLVHIMTNGLEGEKANKYYAETKIDIPQGYYESLQDFTYILSPKACYNSRYPILFDIIRRIGIDDKILKSLSNHTAASYLIQNPKAQMIGVSMRDLNPLNDKQKAELSTMPAAYNDMALAMNNDLLKQIEINKKKTGFTVNETGEVSNEDLFPSIISKFRGHTLLVDFWATWCGPCRSANKQILPMKEELKDKDIIYLYITGETSPLGTWKNMIPDIHGEHFRVTDEQWSYLREKFSIRGVPTYFVIDKEGNITYKQTGFPGVDTMKEQLMKALEKEGHHHHHH,soluble
